This data set is described as follows: soluble on expression in E. coli; label from the status in PepcDB or PDB records.
Regarding “MSLDWQTLLTRERLGKPVHSNDELGRSAFHKDHDRIIFSGAFRRLGRKTQVHPVSSNDHIHTRLTHSLEVACVGRSLGMRVGEILREELPEWCDPSDLGVIVQSACLAHDIGNPPFGHSGEDAIRNWFQQAAGRGWLDEMSDAERSDFLHFEGNAQGFRVLTQLEYHQFDGGTRLTYATLGTYLKYPWTSRHAEALGYKKHKFGCYQSELPLLEQITHKLGMPQLDDERWARHPLVYLMEAADDICYGLIDLEDGLEMELLEYSEVEALLLGLVGDDLPDTYRQLGPRDSRRRKLAILRGKAIEHLTNAAARAFVDQQQALLAGQLAGDLVEHMHGPAKLCVQRAKAIAREKIFQDKRKTLHEIGAYTTLEILLNAFCGAALEQYGGHTPSFKNRRILDLLGRNAPDPQWPLYRAFLQVIDFIAGMTDSYATEMAREMTGRSSEGHHHHHH”, the “soluble on expression in E. coli” value is “soluble”.

Regarding “MGSDKIHHHHHHMNFLVRNLVENLEEGDRVILDVTHSFRSIPLMASVVALYLKEAKDVNVSVVYGKYNKETKVTECEDLTPLTKATSWIYAVRLFKEYGYAKELADLIKKRNEEIYRRSQSSKKPKLLGSMSQKLQDLSSSIRLGSIVAIRKNLTNFFNFIDRNKARIREETEVFVPEIAALLDGIEKRYRVIHVKSENFELSEKELESEKELLDFYLQTGDLGMALRLAREYLINVYLMSGGEKSDFLDRNVRESVSISTFGYDTILQARNHVAHFGFNKLQLPSLKKIEDHLKVLVQTPPEQLLESARKTQRNRKRALLTPLGTTKGALYTVLKKISPDLLLVITSKQGKAILSEILEKAEFKGEFRVILLEDPFMGVSEIDRVVSEIKEHLSDVDEVIVNLTGGTTFLTYVIERAKNQIRYGRKVKTILAVDKRTYEEQKQNPFVVGEILELD”, the “soluble on expression in E. coli” value is reported as “not soluble”.

In the case of “MEEDSREDDFNGKIRRSLCEWLGPFEEFHDRVAKNQQTSRHGLIRSKMKPRPSPFVTLQAPPHESPSHVPVHVALQSMKNLVDERITEITHHEFADLKKGMNNVKSSATSSTDKKRKIGEDEDSQIEVKRKKESRNYIPPSTPDSGTHSTESDMIEEPNSDEVAAMLSIMKTLDTPKLSPLPKDFKVVCKEDEQPGPSSSKFPSDSSVSAASTSRESTPEPKLLGTLRIKALKPERVQKLIELAKTRGKLTDVVEVEKKVVEKVVEKQEKRVLEPLPPPPRPPSVPAVPAVPTPSRDPILGPGSGSARNSPLPPQKPANKTVQSLQGLQGSSRTMSPSPRNIRSTTPSVPSRPPSALSTHSHVETEVAAVATTSAPAEASAAVKPRFVCQWSHARLKKAQRVPFPDPSSTSTKTKGEFYHALAKDWKSKADNSKDRVTRPLNYMLSSVFFVLEAIWKADKERTTQSKMQCASIYRDTYELLGVAVFQGVRDTDDSLAVHILPRVKVIGQVMLAVMQYQMYIFRSEQAIKTMSRLDMREVSESIDIRPVSRASDSSSVHSQHLTVPTNKAVTSVAHGTPKPSPSAGSTPSGPTGAPVIPWIASIQACQNMVSMPQIVYDAYKSQLKTANGLMLASRYWEDSKTLSNIIDSGTFVKDVESIVGKSISMDMQFADLATFVLTAVGSLKAEYEEEQKQPAKPILAKVKKGLDLAIRTGTFHSDRPPPVHRPSNNTPDGKARRKQ”, the “soluble on expression in E. coli” value is “not soluble”.

As to “MGSDKIHHHHHHMRVGATLARAIALKYNKKLVPVNHGIGHIEIGYLTTEARDPLILYLSGGNTIITTFYKGRFRVFGETLDIALGNMMDVFVREVSLAPPYIINGIHVIDICAEKGNKLLKLPYVVKGQDMSFSGLLTAALRVVGKEKLEDICYSVREIAFDMLLEATERALALTSKKELMIVGGVAASVSLRKKLEELGKEWNVQIKIVPPEFAGDNGAMIAYAGMLAASKGVFIDVDKSYIRPRWRVDEVDIPWRN”, the “soluble on expression in E. coli” value is listed as “not soluble”.

Consider “MDITITLDRSEQADYIYQQIYQKLKKEILSRNLLPHSKVPSKRELAENLKVSVNSVNSAYQQLLAEGYLYAIERKGFFVEELDMFSAEEHPPFALPDDLKEIHIDQSDWISFSHMSSDTDHFPIKSWFRCEQKAASRSYRTLGDMSHPQGIYEVRAAITRLISLTRGVKCRPEQMIIGAGTQVLMQLLTELLPKEAVYAMEEPGYRRMYQLLKNAGKQVKTIMLDEKGMSIAEITRQQPDVLVTTPSHQFPSGTIMPVSRRIQLLNWAAEEPRRYIIEDDYDSEFTYDVDSIPALQSLDRFQNVIYMGTFSKSLLPGLRISYMVLPPELLRAYKQRGYDLQTCSSLTQLTLQEFIESGEYQKHIKKMKQHYKEKRERLITALEAEFSGEVTVKGANAGLHFVTEFDTRRTEQDILSHAAGLQLEIFGMSRFNLKENKRQTGRPALIIGFARLKEEDIQEGVQRLFKAVYGHKKIPVTGD”, for which the “soluble on expression in E. coli” value was “not soluble”.

“MGNYKFRISEMLPNAWFHKLKDVTKHSKPKNKASSSSSNTCSKKKPSSDSLPQHSYFSNSLVANNPPHHNSPRNSLHTKKMSKRKTLYKPSLKPLTPPPLLVSASFNKSKINDQDSSYSLFPAIETSPESFVYSFYEEDDDDEFVEFSNFKINTKNKAFTKQKVKVIDSVEKACTASKPIKKPQKSHLSVKISRDEDDNEYKAEKKYQRQVSSGRKPSAGINLKRVNSPRIQLSGTRRSTSRRSESKQDVLESFAVMKRSVDPKKDFRESMIEMIEENNIRASKDLEDLLACYLTLNPKEYHDLIIHVFEQIWLQLTKTK”: the “soluble on expression in E. coli” value is “soluble”.

Consider “MAEHDLTARMAGHLDCHLVLPLLEFLQERHLYPEEEILEAKIRLLRGTNMVDYAMDIHKSRYGTDDVPEDMVKRRAEVVSRLTSLGEAIDNIHQNQQIGPDQIETLYQYAKFQFDCGNYSFAAQYLHQYRALCTNIERSLSALWGKLAAEILMQNWDVALEELNRLKEIIDSKNFSSPLNQLQNRIWLMHWSIFIFYNHENGRNGIIDLFFQERYLNAIQTNAPHLLRYLATAVVVNKRRRNMLKELIKVIQQEQHSYKDPITEFLECLFVNYDFDGAQQKLIECEEVILNDPFLGKRIEEGNSITVPLRDEFLENARLFIFETYCRIHRSIDIGMLSQKLNMRYDEGELWIMNLVRNSKLDAKIDSVSGTLIMTTNHVNIHEQFIESLKNLNMRTSMLAKNIVEPAQAMQQATR”, for which the “soluble on expression in E. coli” value is recorded as “not soluble”.

In the case of “MSLRAELNQGLIDFLKASPTPFHATASLARRLEAAGYRRLDERDAWHTETGGRYYVTRNDSSLIAIRLGRRSPLESGFRLVGAHTDSPCLRVKPNPEIARNGFLQLGVEVYGGALFAPWFDRDLSLAGRVTFRANGKLESRLVDFRKAIAVIPNLAIHLNRAANEGWPINAQNELPPIIAQLAPGEAADFRLLLDEQLLREHGITADVVLDYELSFYDTQSAAVVGLNDEFIAGARLDNLLSCHAGLEALLNAEGDENCILVCTDHEEVGSCSHCGADGPFLEQVLRRLLPEGDAFSRAIQRSLLVSADNAHGVHPNYADRHDANHGPALNGGPVIKINSNQRYATNSETAGFFRHLCQDSEVPVQSFVTRSDMGCGSTIGPITASQVGVRTVDIGLPTFAMHSIRELAGSHDLAHLVKVLGAFYASSELEGHHHHHH”, the “soluble on expression in E. coli” value is reported as “soluble”.

For the sequence “MYLLEINVFEGLNKKELSMIEVAHAILEQHADVMDFSDLVNQIQNYLGKSDSEIRDQLAQFYTDLNIDGSFISLGDNRWGLRSWYPIDSIDEEVTHGLEEDEEDAPRRRKRKKVNAFITNPNDEDVIDYNDDDPEDAELTNDDEEDILYDDEEDEDEEIKAYNSDLQEIGADSDDDEEDIPQIEEDLTIIDDDDVEDEDDFDDEYSEE”, the “soluble on expression in E. coli” value is “not soluble”.

On to “MGTTSSQSKTLYQKLYDAHIVHEAPNETPLLYIDRHLVHEVTSPQAFDGLRAMGRPVRQPGKTFATMDHNVSTQTKDINASGEMARIQMQELIKNCAEFGVSLYDLNHPFQGIVHVIGPEQGMTLPGMTIVCGDSHTATHGAFGSLAFGIGTSEVEHVLATQTLKQGRAKTMRIEVNGTVGAGITAKDIVLAIIGKTGSAGGTGHVVEFCGSAIEALSMEGRMTLCNMAIEMGAKAGLVAPDDTTFAYLKGRQFAPTGEQWEQGVAYWRTLKSDADAQFDTIVTLDAADIAPQVTWGTNPGQVIAVNQIIPAPESFSDPVERASAEKALAYMDLRPGIKLTEVAIDKVFIGSCTNSRIEDLRAAAAIAQGRKVAKGVQAIVVPGSGPVKAQAEAEGLDKIFIAAGFEWRLPGCSMCLAMNNDRLEPGERCASTSNRNFEGRQGRGGRTHLVSPAMAAAAAVSGHFADVRELSATTH”, for which the “soluble on expression in E. coli” value was “not soluble”.

Turning to “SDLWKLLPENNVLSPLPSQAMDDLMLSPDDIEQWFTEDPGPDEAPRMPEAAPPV”, the “soluble on expression in E. coli” value was “soluble”.

On to “MAHHHHHHMKKNLIRWGEKVTDELTKVTLTDKPLGTDFDQGIENLQIKFKELFKIWKNASNKLINDFTSKLDTTSYLSSLQNFVDNEYEFYDSASSVCDEETNS”, for which the “soluble on expression in E. coli” value was “not soluble”.

With “MSRRRKANPTKLSENAKKLAKEVENSQEENDCDMLAKPQTPTIIIPGHMDDTPNPAGSPHDASIKSSSSTISDHTSTSATTGISDFPDILAQTEHGCSVLIDGNHLREIINSVDTQDGKQDLLSDVIRQLTSIKERLTNDESPVKDDLKEDPDDMSPMLHAGNFDSEMLLRQHELMQHQQQQMIIANMLKATQSLPLLFNGGLNYEAILNNPVLNATIAGHLPNPLASNISLLQKSISAKLAAAGNMQTVEKVETPLNLSKDTPSPTAIPQSPLSGFRLPYSLGTNYGSDGQLFNNCSPNSSGKSTPGNTSVTSEVATPRPQAKSPNHIKRPMNAFMVWARDERRKILKAYPDMHNSNISKILGSRWKGMSNSEKQPYYEEQSRLSKLHMEQHPDYRYRPRPKRTCVIDGKKVRVNEYKTIMKTKKDLMWGDEPGFSQPSDLQMDLASHVNLLNDLTQHHHQSHLLQTAE”, the “soluble on expression in E. coli” value is recorded as “not soluble”.

Take “MAHHHHHHMNKMKSTKIENPKYKLMKLIGKGTFGKVYSAIDMSTQEAVAIKRSPKWRNKVSREVDLLKKMNGSTNIVKIKSVFYTTTKKGYRIQNIVFKYMTYSLGRYIRMKKQEKRENNQICIGIKDLHKNDFAHRDLKPDNILIDLDSSNIKIEICDLGSAKKVQRNIISIPYICSRWYRAPELLCGSMFYTTEVDLWSLGCIIFELINLCPLFPGKFKKDEYSEECSQIINLIEVIGSPQMSFFENIKDHTSKKNTLLIKELCELNIKPLCWDEILGNILEIENPNERLNIDAVLSNPYFSTLNK”: the “soluble on expression in E. coli” value is on record as “not soluble”.

“MIFEQGIEIKASATVVEQCFTDLDLMHLWLNPALRCEPIGQWSTAIGGRSRFTIQIPLLKPSLKSVVVERSPGLVVWQFKGFFQGQDRWECRPLEEGTYLLNRFEFTVPNPVVQWGFQMFAARWTSADMQAQLRRLKQVAEREYINSLEHHHHHH”: the “soluble on expression in E. coli” value is listed as “not soluble”.

On to “MSVAIDHDQTAKWDWPFQKGDGVVKVLDYEDHFEVGLEAHNFLPNEIDVKNIGEFLEIHMAHTTKDDKFGSITRSITRCYRLPKGTDPATIKSKLDGSGILHISGNKKK”, for which the “soluble on expression in E. coli” value was “not soluble”.

Regarding “MGSDKIHHHHHHVINLKELKILHTSDWHLGVTSWTSSRPVDRREELKKALDKVVEEAEKREVDLILLTGDLLHSRNNPSVVALHDLLDYLKRMMRTAPVVVLPGNHDWKGLKLFGNFVTSISSDITFVMSFEPVDVEAKRGQKVRILPFPYPDESEALRKNEGDFRFFLESRLNKLYEEALKKEDFAIFMGHFTVEGLAGYAGIEQGREIIINRALIPSVVDYAALGHIHSFREIQKQPLTIYPGSLIRIDFGEEADEKGAVFVELKRGEPPRYERIDASPLPLKTLYYKKIDTSALKSIRDFCRNFPGYVRVVYEEDSGILPDLMGEIDNLVKIE”, the “soluble on expression in E. coli” value is “soluble”.

In the case of “METPQDSRQSIQKPPSPAAEEDKEEQPGGNAVVSGAPEERIDKKELVLNWLAQGEFDQGEGAQGEVAGGEQAQEEPAPLSPAQEATGGEEEGENKEGEMEGRHAGDGASSSEDDSILEEGGENIDQQPPQQEAASPDSIRNPHVLNRLAQLRYRRTRFTHFQLHDLERLFQETRYPSLRARRDLARWMGVDECDVQNWFRMRRALFQRNRRVLMFCELPPLPQSDSP”, the “soluble on expression in E. coli” value was “soluble”.

The values are drawn from the DeepSol protein solubility set.
